Columns and labels:
[1] = target: recombinant factor B derived from Tachypleus tridentatus (Tachypleus tridentatus) (UniProt Q27081); test: cell-based or functional assay
[2] = target: T1, recombinant factor B derived from Tachypleus tridentatus, Q27081
T1 chain: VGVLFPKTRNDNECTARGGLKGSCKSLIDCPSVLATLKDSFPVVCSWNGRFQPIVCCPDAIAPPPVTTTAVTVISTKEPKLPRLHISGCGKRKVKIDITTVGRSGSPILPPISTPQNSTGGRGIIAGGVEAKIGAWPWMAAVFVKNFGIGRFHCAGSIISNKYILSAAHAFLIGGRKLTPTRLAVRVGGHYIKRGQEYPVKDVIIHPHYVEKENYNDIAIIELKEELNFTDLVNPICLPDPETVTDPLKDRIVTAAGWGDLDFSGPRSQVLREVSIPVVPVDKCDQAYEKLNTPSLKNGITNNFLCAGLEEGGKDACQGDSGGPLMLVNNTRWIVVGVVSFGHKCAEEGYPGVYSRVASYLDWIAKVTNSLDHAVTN

[3] = target: T2, recombinant protein having factor B activity of Limulus polyphemus (recombinant second protein)
T2 chain: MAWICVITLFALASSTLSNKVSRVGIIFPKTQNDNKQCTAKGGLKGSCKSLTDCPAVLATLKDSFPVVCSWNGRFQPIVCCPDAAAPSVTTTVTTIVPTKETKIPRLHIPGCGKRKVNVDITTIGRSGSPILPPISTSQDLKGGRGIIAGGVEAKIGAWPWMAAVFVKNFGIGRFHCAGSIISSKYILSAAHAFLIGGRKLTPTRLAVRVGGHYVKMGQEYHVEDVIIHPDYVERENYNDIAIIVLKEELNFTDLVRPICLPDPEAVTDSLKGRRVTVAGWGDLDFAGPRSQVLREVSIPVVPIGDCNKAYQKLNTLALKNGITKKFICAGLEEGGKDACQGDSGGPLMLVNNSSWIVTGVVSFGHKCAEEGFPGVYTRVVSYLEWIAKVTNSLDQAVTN

[4] = target: T3, recombinant protein having proclotting enzyme activity of Limulus polyphemus (recombinant third protein)
T3 chain: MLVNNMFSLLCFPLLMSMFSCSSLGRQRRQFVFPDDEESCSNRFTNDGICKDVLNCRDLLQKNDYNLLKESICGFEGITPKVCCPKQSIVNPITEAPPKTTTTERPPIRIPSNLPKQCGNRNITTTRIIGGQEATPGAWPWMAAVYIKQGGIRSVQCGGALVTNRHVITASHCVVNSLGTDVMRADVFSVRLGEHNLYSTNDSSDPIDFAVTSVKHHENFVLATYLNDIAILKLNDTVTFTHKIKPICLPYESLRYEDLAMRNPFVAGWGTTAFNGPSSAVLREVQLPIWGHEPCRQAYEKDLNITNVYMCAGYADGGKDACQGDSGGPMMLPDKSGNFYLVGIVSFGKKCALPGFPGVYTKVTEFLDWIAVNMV

For “recombinant factor C derived from the genus Tachypleus (Tachypleus tridentatus) (from UniProt P28175 26-1019) (enzyme)”, which change in the absorbance in the cascade reaction system (TFC + TFB + TPCE + Boc-LGR-pNA) at endotoxin 0 EU/mL (blank) [1] is on record?
The change in the absorbance in the cascade reaction system (TFC + TFB + TPCE + Boc-LGR-pNA) at endotoxin 0 EU/mL (blank) was 0.51 mAbs/min.

What about the change in the absorbance in the cascade reaction system (TFC + TFB + TPCE + Boc-LGR-pNA) at endotoxin 0.05 EU/mL [1] of the same molecule?
The change in the absorbance in the cascade reaction system (TFC + TFB + TPCE + Boc-LGR-pNA) at endotoxin 0.05 EU/mL was 9.15 mAbs/min.

B1: recombinant factor C derived from Limulus polyphemus (recombinant first protein, protein having factor C activity) (protein)
chain: RGVDLGLCDDTRFECKCGDPGYVFNVPAKQCTYFYRWRPYCKPCDKLEAKDVCPKYKRCQECRAGLDSCVSCPPNKYGTWCSGECQCKNGGICDQRTGACTCRDRYEGVHCEILQGCPLLQSDPQVQEVKNPPNDPQTIDYSCSPGFKLKGVARITCLPNGQWSSFPPKCIRECSMVSSLEHGKVNSPSADLIEGATLRFSCDSPYYLIGQETLTCQGNGQWSGQIPQCQKLVFCPDLDPVSHAEHQVKIGLEQKYGQFPQGTEVTYTCTGNYFLMGLDTLKCNPDGSWSGTQPSCVKVADREVNCDSKAVDFLDDVGEPVRIHCPAGCSLTAGTVWGTAIYHELSSVCRAAIHAGKVPNSGGAVHVVNNGPYSDFLASDLNGIKSDELKSLAQSFRFDYVSSSTAGRKSGCPDGWFEIEENCVYVTSKQRAWERAQGVCTNMAARLAVLDKDVIPSSLTETLRGKGLATTWIGLHRLDADNHFIWELMDRSSVALNDSLTFWAPGEPGNETNCVYLDIQDQLQPVWKTKSCFQPSSFVCMMDLSDKNKAKCKDPGPLENGHAKLHGQSIDGFYAGSSVRYSCEVLHYLSGTETVSCTSNGTWSAPKPRCIKVITCQTPPVPSYGSVDIKPPSRTNSISRVGSPFLRLPRLPLPLARAAGPPPKPRSAPPSTVDLSSKVKLPEGHYRVGSQAIYTCESRYYELLGSQGRRCDSNGKWSGRPASCIPVCGRSDSPRSPFIVNGNSTEIGQWPWQAGISRWLADHNMWFLQCGGALLNEKWIITAAHCVTYSATAEIIDPSQFKFYLGKYYRDDSKDDDYVQVREAIEIHVNPNYDPGNLNFDIALIQLKTSVALTTRVQPICLPTDLTTRENLKEGALAVVTGWGLNENNTYSEMIQQAVLPVVAASTCEQGYQDSGLPLTVTENMFCAGYKQGRYDACSGDSGGPLVFADDSRTDRRWVLEGIVSWGSPNGCGKSNQYGGFTKVNVFLSWIRQFI
How did the “activity in the cascade reaction system relative to TFC” value [2] turn out when B1 was run?
Its value is “LFC showed the activity about 1.6 times (about 2.2 times when considering the difference in the protein amount) higher than TFC”.

What about the “activity in the cascade reaction system relative to TFC, corrected for the difference in the protein amount” value [2] of the same molecule?
Its value is “LFC showed the activity about 1.6 times (about 2.2 times when considering the difference in the protein amount) higher than TFC”.

And the “cleavage of synthetic substrate Boc-LGR-pNA (change in absorbance A405 nm) in the cascade reaction with endotoxin (0 and 0.05 EU/mL); FC + FB + PCE” value [3]?
Its value is “when all the three types of recombinant proteins were included, cleavage of the synthetic substrate was observed”.

What about the change in the absorbance in the cascade reaction system (LFC + TFB + TPCE + Boc-LGR-pNA) at endotoxin 0 EU/mL (blank) [1] of the same molecule?
The change in the absorbance in the cascade reaction system (LFC + TFB + TPCE + Boc-LGR-pNA) at endotoxin 0 EU/mL (blank) was 0.53 mAbs/min.

What about the change in the absorbance in the cascade reaction system (LFC + TFB + TPCE + Boc-LGR-pNA) at endotoxin 0.05 EU/mL [1] of the same molecule?
The change in the absorbance in the cascade reaction system (LFC + TFB + TPCE + Boc-LGR-pNA) at endotoxin 0.05 EU/mL was 14.3 mAbs/min.

B2: recombinant protein having factor B activity of Limulus polyphemus (recombinant second protein) (protein)
chain: T2 chain
For B2, which “cleavage of synthetic substrate Boc-LGR-pNA (change in absorbance A405 nm) in the cascade reaction with endotoxin (0 and 0.05 EU/mL); FC + FB + PCE” value [4] is on record?
The value was “when all the three types of recombinant proteins were included, cleavage of the synthetic substrate was observed”.

Reference: US20190241629A1
